For test [1], the target named is T1, Cluster of Differentiation 14 (CD14), human, endogenous in primary human monocytes (human, UniProt P08571 20-345).
T1 construct: whole, on cells; also called CD14 receptor
T1 sequence (looked up): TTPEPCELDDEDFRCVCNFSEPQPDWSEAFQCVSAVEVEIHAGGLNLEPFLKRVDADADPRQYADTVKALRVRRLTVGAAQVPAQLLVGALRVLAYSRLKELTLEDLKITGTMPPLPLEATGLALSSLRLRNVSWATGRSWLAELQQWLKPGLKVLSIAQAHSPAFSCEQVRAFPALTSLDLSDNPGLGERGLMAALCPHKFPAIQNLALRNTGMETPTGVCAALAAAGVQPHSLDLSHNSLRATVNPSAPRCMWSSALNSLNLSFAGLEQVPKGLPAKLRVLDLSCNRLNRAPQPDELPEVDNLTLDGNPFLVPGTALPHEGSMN
Description: co-immunoprecipitation with anti-GzmA from lysates of GzmA-treated human monocytes, western blot for CD14. On the technique in general: A western blot detects proteins with antibodies after separation by electrophoresis.

The target of test [2] is T2, Toll-like Receptor 4 (TLR4), human, endogenous in primary human monocytes (human, UniProt O00206 24-839).
T2 construct: whole, on cells
T2 sequence (O00206 24-839): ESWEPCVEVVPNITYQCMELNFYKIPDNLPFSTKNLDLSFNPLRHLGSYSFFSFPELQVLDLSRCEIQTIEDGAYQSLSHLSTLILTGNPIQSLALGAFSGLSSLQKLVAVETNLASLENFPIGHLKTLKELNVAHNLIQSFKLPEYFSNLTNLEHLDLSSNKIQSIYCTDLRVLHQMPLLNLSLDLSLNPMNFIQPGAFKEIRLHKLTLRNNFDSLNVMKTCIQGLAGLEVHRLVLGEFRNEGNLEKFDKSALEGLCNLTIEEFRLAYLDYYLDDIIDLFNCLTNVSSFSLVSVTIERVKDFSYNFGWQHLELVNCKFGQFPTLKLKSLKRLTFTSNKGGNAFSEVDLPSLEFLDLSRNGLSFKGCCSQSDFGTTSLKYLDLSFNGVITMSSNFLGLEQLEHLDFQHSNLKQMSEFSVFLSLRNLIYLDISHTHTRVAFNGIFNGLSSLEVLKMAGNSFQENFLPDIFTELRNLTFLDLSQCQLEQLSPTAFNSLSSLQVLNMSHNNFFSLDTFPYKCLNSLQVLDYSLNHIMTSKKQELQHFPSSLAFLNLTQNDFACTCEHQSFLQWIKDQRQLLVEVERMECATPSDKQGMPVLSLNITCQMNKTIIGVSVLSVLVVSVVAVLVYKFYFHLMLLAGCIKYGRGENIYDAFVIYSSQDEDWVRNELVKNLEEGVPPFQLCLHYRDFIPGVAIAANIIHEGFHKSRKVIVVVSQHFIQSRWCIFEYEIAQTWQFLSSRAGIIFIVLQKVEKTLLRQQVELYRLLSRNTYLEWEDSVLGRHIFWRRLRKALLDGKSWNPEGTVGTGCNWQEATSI
The test is described as follows: co-immunoprecipitation with anti-GzmA from lysates of GzmA-treated human monocytes, western blot for TLR4.

B1: Monomeric Granzyme A C93S, recombinant human, His-tagged (GzmA-C93S) (enzyme)
chain: IIGGNEVTPHSRPYMVLLSLDRKTICAGALIAKDWVLTAAHCNLNKRSQVILGAHSITREEPTKQIMLVKKEFPYPSYDPATREGDLKLLQLMEKAKINKYVTILHLPKKGDDVKPGTMCQVAGWGRTHNSASWSDTLREVNITIIDRKVCNDRNHYNFNPVIGMNMVCAGSLRGGRDSCNGDSGSPLLCEGVFRGVTSFGLENKCGDPRGPGVYILLSKKHLNWIIMTIKGAV
notes: Forms only monomers; also called monomeric GzmA; GzmA-monomer; not shown: His tag
As to B1, the binding result in test [1] and in test [2] was “no binding” throughout.

For the origin of these results see US20240100133A1 (SAINT LOUIS UNIVERSITY, published 2024).
